Measurements: a protein production outcome set (Wang et al. 2014)

Assay: label from the status in PepcDB records

Row | Sequence | protein production
1 | MRPIKLLPDGLISQIAAGEVIERPASVLKELLENAIDAGTTDISVNIAQGGLKLIRVTDNGGGISGEELPLALTRHATSKIASQEDLYRITSLGFRGEGLASIASVSNLLLISHQPGGKHAWQIRSEGIRVMQPEPSSHAAGTTVEVRDLFFNLPARRKFLKTEATEFAHCEEIIRRMALSHAGIAFTLRHNGNLRGHWQSAEAAVRIKTVLGEEFTRSAAWIDERSAGIGLQGMLALPAYSRAARDMQYFFVNGRFVRDKLITHALREAYRDVLHLDRHAAFVLYLDIDPEQVDVNVHPTKTEIRFREARAIHQFIYHGVSKALSLPRSGTELSQSSSQLMADDIVPPAEKRVPAAPMLNYPRQTGLPSEMIAQPFNFYQVLSGSESDSTATQNPFRQTGAGESNEHPALPPLGFALGQLHGVYILAQNWKGLVIVDMHAAHERIVYEQLKLQMDEQTLSAQRLLIPVTFHADSLDIATAEENQSLLQQLGFEVTVLTATTLAVRAVPAILQDADTEKLVCNVLDEIRNGDPGQLLAARRNELLATMACHGAVRANRPLTLIEMNELLRKMEVTERSDQCNHGRPTWFEISLAELDKMFMRGK | failed
2 | MLNIQNYSASPHPGIVAERPQTPSASEHAEIAVVPSTTEHRGTDIISLSQAATKIQQAQQTLQSTPPISEENNDERTLARQQLTSSLNALAKSGVSLSAEQNENLRSTFSAPTSALFSASPMAQPRTTISDAEIWDMVSQNISAIGDSYLGVYENVVAVYTDFYQAFSDILSKMGGWLSPGKDGNTIKLNVDSLKSEISSLINKYTQINKNTILFPSQTGSGMTTATKAEAEQWIKELNLPDSCLKASGSGYVVLVDTGPLSKMVSDLNGIGSGSALELDNAKYQAWQSGFKAQEENLKTTLQTLTQKYSNANSLYDNLVKVLSSTISSSLETAKSFLQG | failed
3 | MELAAILFSMFFAMNIGASGAAASMGIAYGSEAVKKKFHALLICAAGVLSGAVIGGGNVVKTISSGIIPERVISLEIVCIIIGSAALSLFIANVLGIPLSTSEVTVGSVVGVGVAYQVLYVKSLLVIVSFWVIVPIVAFAFTFAMAKIMKKTIKRPASGKKAKVLAVILLITGFFEAFSAGMNNVANAVGPLVAAHVLTVGEGTLYGGLFVALGALLLGRRVLETNGKKITRFSKGEGIILSGTGAGLVITSSIFGLPVPLAQVTSSSIIGMGMAKNGGNVFHKQVVKTMLKVWVVSPFLSLSLSYMLVSLLLKGDYYALIVVTSVLLASVGTISLMRAVKKEHSSVHEQGGGI | failed
4 | RNFLNNQQIRAQVHRRILEQLPTEGEIVLLGHSLGSVIAADLLRRLPPELTVKGFVTIGSPLANGQFNVDDLFKLLRTPLSNVSWWVNFWSGS | failed
5 | MTYDLTVIIPVYNTEKYLRRCLESIVNQDDIEQCSIKVICINDGSTDESRKIIEEFVEKYSYIEIFNKENGGLADVRNTGLQFINDSLYTVSLDSDDFWDKSFLTEFNKYKSSNYDLIFFDINLVDCDGNPVKELIVNPKFDKYNKKKDFMVVKHAAWSKICRTNLYDNINFPKGKLYEDLAVMPYLTSRAERIHYIQKPLINYVINTPGSIMNSSKSNIFDIYDSLIHLFNLFGNHFEKYRNELQYLAIEHLCVGHTYRLLNYPEATKQDFKDIVIFMEKYFGKHWDKNKYVKRGVQKVNINSSLSYVVPVFLKFLKYGGIIKLYDIKRVLLSKK | failed
6 | VYPLELTLEEIFHGCLKKVAHKRKVLLFSGEYVEEERQLTVDVKPGLPTGTRFVFEGEGNKTPKKEPGPVVFVLKPKPHPRFVRRGSDLVHKVTLPLHHALIGTTLDIRTLDDRDLKVPISDIMRPGSSLTVPGEGMPLPATPSARGNLVIEIDLLFPTHLTETQKMLLRSAF | not failed
7 | MLDLFGYKRRKTSVAQIGDTPLGGDFPIRIQSMANVSTMDTQASVDQAARIIDAGADYVRFTAQGVREAVNLQHIHAGLCRLGYHIPLVADIHFSPKAAEEALLHVEKVRINPGNFVEMKSGGNLTEEEAFDLGHKAVRERFGSFVEDAKRLGRAIRIGVNHGSLSERMLTRYGDTAEGMVQSCMEYLDVCHEHEFDDVVISMKASNTLVMTAAVRLLVERMDAADMHYPLHIGVTEAGDGEDGRIKSAVGIGSLLADGIGDTIRVSLSEDPEHEIPVARKLLAYIEKRNGHPSVAVPQPDRYDRDKLRRQETYAVGDFIGSKHIPIVISDRRQGDDHFDTELLPDIVLGADGRYYREDMLLENIVFRSIRQDDLTDDCLQTIEAISDTVIILESVGINPVAEWRAMLHRLELAGCRCPVILHRRYDCTDLEDLQLQASADMGAILLEGRGNGLMITADKLPSVAVNHLAFGILQATR | failed
8 | MEAARSMTFSECAALYIKAHRSSWKNTKHADQWTNTIKTYCGPVIGPLSVQDVDTKLIMKVLDPIWEQKPETASRLRGRIESVLDWATVRGYREGDNPARWRGYLEHHHHHH | not failed
9 | MGSAERFQRLLGDRYELRGVLGRGGMAEVRDGWDTRLARPVAIKLLYPALAADADLRARFEREARAAAALTHPHVVAVHDCGEHAGTPYIVMERLSGATLADEIAAGPLPQERVAELLDQILSALIAAHAAGIVHRDIKPGNILIGHTGQAKLADFGIAKTDGVPHTQAGQILGTMAYLSPQRVTGQPAGFADDLYAVGVVGYEALTGRRPFDRDNPAAMVRAILDDVPVPIASVRSDVAPGLIHVIDMAMAREVAFRYPDAATMRAALTGAEPPTQRVGRRQTKVLAAPLPPIPPPPVLPSPRHWRTRLILAVLGIVSTLILVLVLALARGSSGLTSPTSTPTATTVPPATSAVVPPPVPSTPVPAAVPEEPRGPGRGPGPGPGPGKGKGHEKGHGPKGPKGPPHP | failed
10 | MLIYNLAIHSYLGCDSLALLPKANTLSKEKNINNADDTIKDQILASIDSFIYTKDLSGKYTYANQAVLDLFEKNLADVIGFDDTHFFDLALSKQLKANDRMVMDQVIRIENEESNFIRAKNETRIFKVVKKPLFDHLGNVNGICGISTDITVEKQLQEQVNEQSYLLETMLNNIDAHIYVKDCERTFLYVNNRVAELFGDKAENIIGKKDTDILPKEIAEHFYQSDKQVFETNQKQVIEETTHGENGDNCHYISTKVPFDRPDKLPALIGFSTDVTELFKLKEEFKLLANTDPLTNLYNRRFFIEQAEKEYQRAKRYSLSMTLISIDIDHFKSINDQFGHPAGDQVLIEIAKQLKASLRQTDILARIGGEEFSILLPETSAMSAMTFAERIKEEQSRLIITGDWQGEINLSVSIGVSSLIASDKAFDVLFSRADKALYQAKNTGRNTVCYL | failed
11 | MLIIFASGFALRAGTVTVAGVYSEAHYQPLMYDMDSYYNLRLASNLLNEGELSEGGWDRYSYYPPGVPLDYPPLLPHLTVTLYLLFTWLLPGLTDTAFWLPAIIAPLAGVAVFAAARSLDCDDVSATTAGLLATAAPFYFMRTIPGFYDTDMFNLVLPLAILLTLHLSLRDGDWRMAVLSGALMGVFAAAWNGWQLIYSIMALSVILHSLLYRRREPLIFLITSTLLIVLMDPRAIPSIPVGLMKIPVARADPFPDPYANITELQRPGFDDVLMALGPGLLLAGLAGFRSLFRDWRDSMVLPVIILWTLTGAASLLWGIRFSELLTAPLLITSALFLADLGTASRVPPGFRRKLHVAVAIMVVLPSLIISTGQYSALHPRVDDGLLDAADYIRAKTPPDTVVISNWVHGHFFAFMARRPVNFDGRLAYIETAAKRGPGYPLDPRIPGVYREYWHDPGPNDHGPHLADEILSMLASSGDEAYLEVLNATGDPAGSAVILGDVLAVDGSSRAEYLQDRGLDPVASGRVASTLSRRSGYVLVTCDRLIDKGYWILYYGNWNFTGKTRKPVYSTGSIVQGWPLRTSDGLLWDGERISFNGLRVSELYLVDGGVRKVEGDPQGGLVAFVLYDRNRTVVLERGYEDSMFARLVLLGDGGGVFRAVMRSRDVTVWEPIRDWNT | failed
12 | MKIALINENSQASKNHIIYDSLKEATDKKGYQLFNYGMRGEEGESQLTYVQNGLMAAILLNTKAVDFVVTGCGTGVGAMLALNSFPGVVCGLAVDPTDAYLYSQINGGNALSIPYAKGFGWGAELTLKLMFERLFAEEMGGGYPRERVIPEQRNARILNEVKQITHNDLMTILKIIDQDFLKDTISGKYFQEYFFENCQDDEVAAYLKEVLAK | not failed
13 | MPPPLRVLILEDSEDDYFLLVRALKREFDIVPERVDSEESLRANLCEKRWDIVLSDYFMPQFDALAALTLIQSMNLDIPFIIVSGKIGEFEAVKAMKAGAHDYIMKGDYTRLIPAIRRELREAVIRQEQRRTDHELREQLHFRQALIDAIPAPIYFMDTTGIFLGCNKAFEAFSGHTQDEIVGKTIYDLMPPSLAKHTDSADRELFEHGGIQIYESVISFADGALHDVIFYKATFTTTEKNIGGLVGTILDITERKQTEERLRYMSTHDTLTGLYNRAYFQEEMERLEQGRQFPVSVVVFDVDRLKYVNDSQGHAAGDELLIRAALVLKGAFRAEDVVARIGGDEFAVLLPSADADVVQEALRRVIGKIEQSQTEDHPVPLSISFGAATASKGDRLEEVLKLADRRMYENKFKKCCVLPA | failed
14 | MLGYVWLVEGRELMRWQELCTPAVICVGGVDPSAGAGITADVRTAENMGVRAYTVATAITFQGSGSYRGERWVDSADIIRQIESLSAEMEPAVAKIGLIRDSDTLSLVVDCLKKVFPSIRIVWDPVLRASADSSAGQADRFNLEDITALSRIDFITPNLPEARHLLGCEPDDETLLDFYRRSGVGLVLKGGHAGESVVTDRIVYDGRCEALRLLRGGTGKHGTGCAHSTAFAAALALEQEPFTAAGMAQLYVSRLRERASGLLAMHKDLPVDPVVRLMSEIDLQFITHRQPDLSELEEAEAVCRIGVRWVQLRMKEASDEEMLHTACAVKAVCRHHGALFVVNDRVEIARQVDADGVHLGKEDMAIVEARRILGSNKIIGRTCNTMEDVRRAYAEGADYVGIGPYRYTETKQRLAPVLGLEGYKAIAACMQAEGIRLPAFAIGGIEDADIPLIRDCGIGGIAVSGSLIRKIKKNLEHHHHHH | failed
15 | MLSVFLEIIYERQLRKINLKILTDFINLIKEESLSNGAEFIQVQGGFYFLFKKKSIAYAFSTARFLYNVNKILISYKNKISEVRCITDYYEEDVSNEALFESLSLYKKQLIPEMGMFASREAANKLSKYIDFNETDSSILLCNAFKFFENINLTSNKNADKNASIILHRNDNYFWSIYNFILANPLDNDSLKAMSNEDRISFLATKNVYIYLKKHRFSKDMPQYFIDAFLTNAAIYLKNYIKKQNGRRSVKVLIDNLNDKKNLDEAEKIYAVNKYMEIEALDSSLPSIYNIPDDLLQLIYIILVSSKYFFYDEITDFLVSLNKSKAFFDDVYAWMYSMGIILVENNIYAVPYGLPEIIERRINLSKNMVDSNITEYLWAKYKKGILNANSDAEKIFDSLNFKCKPDFLLASIFHNYSDSSIEGLDLKKYKNEIFYDALKYYQNSIIANIDDSTAKSYAYLKTAIGFFQENKLESGEYRAFSLLAFFNLMQNKISDAITYFSYALDNAEHSHDTSFICDALFNISIVYFLQNNLKQSITFLDRLAAAVDEYFEQDWKIPYLFMKGRVYLQIGEFNKAADSFRMASDFADLYFDKIEPLCKSWYGRSLIYMGQIKNGQEILIKYIDYTDDALLFLLESFLFYPVLNNDFEKMDLDISSIYSAYNNSGLTDFINLKSGFSIAEDLIWSNIYDMSIGKKMFDAFYNYYNCKINFSKMYDIEECKILLSNLEASAVESLYQNDPYSSLYMYLCYDLSVKLYGENSSQTIAYLSKAFKSMQKNVLAIGENDIRDKYMQNNLWNSKLFKVAKNQKLI | failed
16 | MNKHFLETLLQKHQQAGTFPSTSDICRLVTRILLVLFPEQTQAKYKDVADVEIQMGVYQKELTRLLGSMQKDLPAPANELSDAFMNELSVIYDKLLLDIQAILNGDPAARSEFEVIRAYPGFYAIAFYRMAHALYKLNIPLMPRIIMEYAHSKTGIDIHPGATIGKNFYIDHGTGIVIGETAHIGDNVKVYQGVTLGALSVSKDKADTKRHPTIEDNVIIYSGATILGGKTVVGHDSIIGGNVWLTESVQPFTRVYHKAQIEVIIKNADPSLNETENNEEAIRKMKKAESENTKKNS | failed
